Measurements from patent EP4717706A1.

Legend:
[1] = target: VLP2 (virus-like particles, capsid protein particles of AAV serotype 2) (AAV serotype 2 (AAV2)) (UniProt P03135); assay: ELISA on immobilised VLP2 (purified protein, 5 µg/mL); A450 after 1:1 1 M NaOH with 1 mM CaCl2, 30°C, 60 min divided by A450 at 0 time
[2] = target: VLP2 (virus-like particles, capsid protein particles of AAV serotype 2) (AAV serotype 2 (AAV2)) (UniProt P03135); assay: ELISA on immobilised VLP2 (purified protein, 5 µg/mL); A450 after 1:1 1 M NaOH with 1 mM CaCl2, 30°C, 30 min divided by A450 at 0 time
[3] = target: VLP2 (virus-like particles, capsid protein particles of AAV serotype 2) (AAV serotype 2 (AAV2)) (UniProt P03135); assay: ELISA on immobilised VLP2 (purified protein, 5 µg/mL); A450 after 1:1 1 M NaOH with 1 mM CaCl2, 30°C, 20 min divided by A450 at 0 time
[4] = target: VLP2 (virus-like particles, capsid protein particles of AAV serotype 2) (AAV serotype 2 (AAV2)) (UniProt P03135); assay: ELISA on immobilised VLP2 (purified protein, 5 µg/mL); A450 after 1:1 1 M NaOH with 1 mM CaCl2, 30°C, 60 min divided by A450 at 0 time; remark: listed apart in the source
[5] = target: VLP2 (virus-like particles, capsid protein particles of AAV serotype 2) (AAV serotype 2 (AAV2)) (UniProt P03135); assay: ELISA on immobilised VLP2 (purified protein, 5 µg/mL); start of alkali treatment, the reference of the ratio
[6] = target: VLP2 (virus-like particles, capsid protein particles of AAV serotype 2) (AAV serotype 2 (AAV2)) (UniProt P03135); assay: ELISA on immobilised VLP2 (purified protein, 5 µg/mL); A450 after 1:1 1 M NaOH with 1 mM CaCl2, 30°C, 60 min divided by A450 at 0 time; remark: listed apart in the source
[7] = target: VLP2 (virus-like particles, capsid protein particles of AAV serotype 2) (AAV serotype 2 (AAV2)) (UniProt P03135); assay: ELISA on immobilised VLP2 (culture supernatant); A450 after 1:1 1 M NaOH, 15 min, 30°C divided by A450 untreated
[8] = target: VLP2 (virus-like particles, capsid protein particles of AAV serotype 2) (AAV serotype 2 (AAV2)) (UniProt P03135); assay: ELISA on immobilised VLP2 (purified protein, 5 µg/mL); A450 after 1:1 1 M NaOH with 1 mM CaCl2, 30°C, 30 min divided by A450 at 0 time; remark: listed apart in the source
[9] = target: VLP2 (virus-like particles, capsid protein particles of AAV serotype 2) (AAV serotype 2 (AAV2)) (UniProt P03135); assay: ELISA on immobilised VLP2 (purified protein, 5 µg/mL); A450 after 1:1 1 M NaOH with 1 mM CaCl2, 30°C, 45 min divided by A450 at 0 time
[10] = target: VLP2 (virus-like particles, capsid protein particles of AAV serotype 2) (AAV serotype 2 (AAV2)) (UniProt P03135); assay: ELISA on immobilised VLP2 (purified protein, 5 µg/mL); A450 after 1:1 1 M NaOH with 1 mM CaCl2, 30°C, 30 min divided by A450 at 0 time; remark: listed apart in the source
[11] = target: VLP2 (virus-like particles, capsid protein particles of AAV serotype 2) (AAV serotype 2 (AAV2)) (UniProt P03135); assay: ELISA on immobilised VLP2 (purified protein, 5 µg/mL); A450 after 1:1 1 M NaOH with 1 mM CaCl2, 30°C, 20 min divided by A450 at 0 time; remark: listed apart in the source
[12] = target: VLP2 (virus-like particles, capsid protein particles of AAV serotype 2) (AAV serotype 2 (AAV2)) (UniProt P03135); assay: ELISA on immobilised VLP2 (purified protein); A450 after 1:1 0.5 M NaOH, 30°C, 30 min divided by A450 at 0 time
[13] = target: VLP2 (virus-like particles, capsid protein particles of AAV serotype 2) (AAV serotype 2 (AAV2)) (UniProt P03135); assay: ELISA on immobilised VLP2 (purified protein, 5 µg/mL); A450 after 1:1 1 M NaOH with 1 mM CaCl2, 30°C, 60 min divided by A450 at 0 time; remark: listed apart in the source
[14] = target: VLP2 (virus-like particles, capsid protein particles of AAV serotype 2) (AAV serotype 2 (AAV2)) (UniProt P03135); assay: ELISA on immobilised VLP2 (purified protein, 5 µg/mL); A450 after 1:1 1 M NaOH with 1 mM CaCl2, 30°C, 30 min divided by A450 at 0 time; remark: listed apart in the source
[15] = target: VLP2 (virus-like particles, capsid protein particles of AAV serotype 2) (AAV serotype 2 (AAV2)) (UniProt P03135); assay: ELISA on immobilised VLP2 (culture supernatant, anti-His detection); A450 after 1:1 0.5 M NaOH, 30 min, 30°C divided by A450 untreated
[16] = target: VLP2 (virus-like particles, capsid protein particles of AAV serotype 2) (AAV serotype 2 (AAV2)) (UniProt P03135); assay: ELISA on immobilised VLP2 (purified protein); start of alkali treatment, the reference of the ratio
[17] = target: VLP2 (virus-like particles, capsid protein particles of AAV serotype 2) (AAV serotype 2 (AAV2)) (UniProt P03135); assay: ELISA on immobilised VLP2 (purified protein); A450 after 1:1 0.5 M NaOH, 30°C, 60 min divided by A450 at 0 time
[18] = target: VLP2 (virus-like particles, capsid protein particles of AAV serotype 2) (AAV serotype 2 (AAV2)) (UniProt P03135); assay: ELISA on immobilised VLP2 (culture supernatant); A450 after 1:1 0.1 M glycine-NaOH pH 10.0, 15 min, 51.3°C divided by A450 untreated

Chain of UniProt P03135 (P03135 whole entry): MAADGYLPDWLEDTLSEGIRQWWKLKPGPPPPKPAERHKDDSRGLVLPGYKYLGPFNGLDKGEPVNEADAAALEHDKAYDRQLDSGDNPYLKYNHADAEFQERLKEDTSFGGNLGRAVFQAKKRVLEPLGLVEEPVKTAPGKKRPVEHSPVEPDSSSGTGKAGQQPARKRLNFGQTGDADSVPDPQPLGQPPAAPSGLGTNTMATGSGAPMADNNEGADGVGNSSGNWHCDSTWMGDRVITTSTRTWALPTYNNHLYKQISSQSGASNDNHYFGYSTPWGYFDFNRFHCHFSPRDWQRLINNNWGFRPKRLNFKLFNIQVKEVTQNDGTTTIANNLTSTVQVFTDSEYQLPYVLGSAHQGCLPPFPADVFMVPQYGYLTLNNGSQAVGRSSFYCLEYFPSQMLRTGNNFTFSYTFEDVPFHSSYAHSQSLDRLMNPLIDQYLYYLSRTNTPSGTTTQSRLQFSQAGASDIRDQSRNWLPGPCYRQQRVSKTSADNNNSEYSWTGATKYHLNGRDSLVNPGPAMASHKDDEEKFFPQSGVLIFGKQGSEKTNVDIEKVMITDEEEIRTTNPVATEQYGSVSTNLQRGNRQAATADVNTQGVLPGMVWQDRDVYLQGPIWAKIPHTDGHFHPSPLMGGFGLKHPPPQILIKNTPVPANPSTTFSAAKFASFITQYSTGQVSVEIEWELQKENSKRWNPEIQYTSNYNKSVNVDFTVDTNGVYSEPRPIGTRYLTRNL

B1: AVR28 (AVR25c with I366F, V394A, K455R) (receptor)
chain: MGSAGESDQITLPKHEAQLKVYVLLVPPKGEASTYDWQLITHPRDYSGEMEGEHSQFLKLSNLTPGLYEYRAVVEGQNAHSEGYANVTVEPGPRKNRPPIAIVSPQFQEISLPTTSAVIDGSQSTDDDKIVQYHWEELKGPLREERISEDTPILKLSNLVPGNYTFRLTVVDTDGATDSTTADLTVNKAVDHHHHHH
- Remaining activity [%] [1]: 6.29%
- Remaining activity [%] [2]: 42%
- Remaining activity [%] [3]: 42.5%
- Remaining activity [%] [4]: 3%
- Remaining activity [%] [5]: 100%
- Remaining activity [%] [6]: 1.22%
- Remaining activity [%] [7]: 71.9%
- Remaining activity [%] [8]: 22.5%

B2: AVR27d (AVR25c with K455R, T474R) (receptor)
chain: MGSAGESDQITLPKHEAQLKVYVLLVPPKGEASTYDWQLITHPRDYSGEMEGEHSQILKLSNLTPGLYEYRAVVEGQNAHSEGYVNVTVEPGPRKNRPPIAIVSPQFQEISLPTTSAVIDGSQSTDDDKIVQYHWEELKGPLREERISEDTPILKLSNLVPGNYRFRLTVVDTDGATDSTTADLTVNKAVDHHHHHH
- Remaining activity [%] [9]: 5.11%
- Remaining activity [%] [5]: 100%
- Remaining activity [%] [10]: 15.8%

B3: AVR29b (AVR25c with G314D, I366F, V394A, K455R) (receptor)
chain: MGSADESDQITLPKHEAQLKVYVLLVPPKGEASTYDWQLITHPRDYSGEMEGEHSQFLKLSNLTPGLYEYRAVVEGQNAHSEGYANVTVEPGPRKNRPPIAIVSPQFQEISLPTTSAVIDGSQSTDDDKIVQYHWEELKGPLREERISEDTPILKLSNLVPGNYTFRLTVVDTDGATDSTTADLTVNKAVDHHHHHH
- Remaining activity [%] [3]: 63.7%
- Remaining activity [%] [9]: 1.31%
- Remaining activity [%] [11]: 58.7%
- Remaining activity [%] [5]: 100%
- Remaining activity [%] [6]: 1.08%

B4: AVR27b (AVR25c with I366F, T474R) (receptor)
chain: MGSAGESDQITLPKHEAQLKVYVLLVPPKGEASTYDWQLITHPRDYSGEMEGEHSQFLKLSNLTPGLYEYRAVVEGQNAHSEGYVNVTVEPGPRKNRPPIAIVSPQFQEISLPTTSAVIDGSQSTDDDKIVQYHWEELKGPLREEKISEDTPILKLSNLVPGNYRFRLTVVDTDGATDSTTADLTVNKAVDHHHHHH
- Remaining activity [%] [9]: 4.54%
- Remaining activity [%] [5]: 100%
- Remaining activity [%] [10]: 17.1%

B5: AVR29d (AVR25c with I366F, V394A, K455R, V499I) (receptor)
chain: MGSAGESDQITLPKHEAQLKVYVLLVPPKGEASTYDWQLITHPRDYSGEMEGEHSQFLKLSNLTPGLYEYRAVVEGQNAHSEGYANVTVEPGPRKNRPPIAIVSPQFQEISLPTTSAVIDGSQSTDDDKIVQYHWEELKGPLREERISEDTPILKLSNLVPGNYTFRLTVVDTDGATDSTTADLTVNKAIDHHHHHH
- Remaining activity [%] [3]: 68.6%
- Remaining activity [%] [9]: 4.47%
- Remaining activity [%] [11]: 63%
- Remaining activity [%] [5]: 100%
- Remaining activity [%] [6]: 1.06%

B6: AVR29a (AVR25c with I366F, V394A, K455R, T474R) (receptor)
chain: MGSAGESDQITLPKHEAQLKVYVLLVPPKGEASTYDWQLITHPRDYSGEMEGEHSQFLKLSNLTPGLYEYRAVVEGQNAHSEGYANVTVEPGPRKNRPPIAIVSPQFQEISLPTTSAVIDGSQSTDDDKIVQYHWEELKGPLREERISEDTPILKLSNLVPGNYRFRLTVVDTDGATDSTTADLTVNKAVDHHHHHH
- Remaining activity [%] [4]: 5.07%
- Remaining activity [%] [5]: 100%
- Remaining activity [%] [8]: 24.2%

B7: AAV-binding protein AVR21 (receptor)
chain: MGSAGESDQITLPKHEAQLNVYVLLVPPKGEASTYDWQLITHPRDYSGEMEGEHSQILKLSNLTPGLYEYRAVVEGQNAHSEGYVNVTVEPEPRKNRPPIAIVSPQFQEISLPTTSTVIDGSQSTDDDKIVQYHWEELKGPLREEKISEDTAILKLSQLVPGNYTFRLTVVDTDGATDSTTADLTVNKAVDHHHHHH
- Remaining activity [%] [12]: 16.9%
- Remaining activity [%] [13]: 0.694%
- Remaining activity [%] [14]: 1.53%
- Remaining activity [%] [15]: 26.2%
- Remaining activity [%] [5]: 100%
- Remaining activity [%] [16]: 100%
- Remaining activity [%] [17]: 0%

B8: AVR27c (AVR25c with V394A, T474R) (receptor)
chain: MGSAGESDQITLPKHEAQLKVYVLLVPPKGEASTYDWQLITHPRDYSGEMEGEHSQILKLSNLTPGLYEYRAVVEGQNAHSEGYANVTVEPGPRKNRPPIAIVSPQFQEISLPTTSAVIDGSQSTDDDKIVQYHWEELKGPLREEKISEDTPILKLSNLVPGNYRFRLTVVDTDGATDSTTADLTVNKAVDHHHHHH
- Remaining activity [%] [9]: 1.73%
- Remaining activity [%] [5]: 100%
- Remaining activity [%] [10]: 13.6%

B9: AVR31 (AVR25c with G314D, I366F, V394A, K455R, K497E, V499I) (receptor)
chain: MGSADESDQITLPKHEAQLKVYVLLVPPKGEASTYDWQLITHPRDYSGEMEGEHSQFLKLSNLTPGLYEYRAVVEGQNAHSEGYANVTVEPGPRKNRPPIAIVSPQFQEISLPTTSAVIDGSQSTDDDKIVQYHWEELKGPLREERISEDTPILKLSNLVPGNYTFRLTVVDTDGATDSTTADLTVNEAIDHHHHHH
- Remaining activity [%] [1]: 10.6%
- Remaining activity [%] [2]: 48.3%
- Remaining activity [%] [13]: 13.3%
- Remaining activity [%] [14]: 53.8%
- Remaining activity [%] [5]: 100%

B10: AVR29c (AVR25c with I366F, V394A, K455R, K497E) (receptor)
chain: MGSAGESDQITLPKHEAQLKVYVLLVPPKGEASTYDWQLITHPRDYSGEMEGEHSQFLKLSNLTPGLYEYRAVVEGQNAHSEGYANVTVEPGPRKNRPPIAIVSPQFQEISLPTTSAVIDGSQSTDDDKIVQYHWEELKGPLREERISEDTPILKLSNLVPGNYTFRLTVVDTDGATDSTTADLTVNEAVDHHHHHH
- Remaining activity [%] [1]: 15.7%
- Remaining activity [%] [2]: 57.7%
- Remaining activity [%] [3]: 93.2%
- Remaining activity [%] [9]: 1.93%
- Remaining activity [%] [11]: 78.7%
- Remaining activity [%] [5]: 100%
- Remaining activity [%] [6]: 2.39%

B11: AVR8g with Y331H, F379S, K467N, A491T (receptor)
chain: MGSAGESDQITLPKNEVQLNAHVLQEPPKGETCTYDWQLITHPRDYSGEMEGEHSQILKLSNLTPGLYESKVIVEGQNAHSEGYVNVTVEPEPRKNRPPIAIVSPQFQEISLPTTSTVIDGSQSTDDDKIVQYHWEELKGPLREEKISEDTAILKLSNLVPGNYTFRLTVVDSDGATDSTTTNLTVNKAVDHHHHHH
- Remaining activity [%] [18]: 28.1%
